± gives the standard deviation of the averaged measurements.
How the values were obtained:
[1] = tested on: Saccharomyces cerevisiae; experiment: protein stability index of tFT-peptide fusion (C-terminal peptide) (PSI (0-1 scale)); higher = more stable (slower turnover)
Description: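 MPS profiling in S. cerevisiae of the tFT-X12 degron library: putative degron peptides plus stable controls, 12 aa, fused to the C-terminus of a sfGFP-mCherry timer. Cells are FACS-sorted into 8 mCherry/sfGFP bins and deep-sequenced. PSI runs from 0 (unstable) to 1 (stable). Backgrounds are wild type, das1Δ and doa10Δ at 30 °C, and wild type, das1Δ, cdc34-1 and cdc53-1 at 37 °C; 2-3 technical replicates each.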

[2] = tested on: Saccharomyces cerevisiae; experiment: as above; conditions: genetic background: wild type; temperature: 30 C
[3] = genetic background: cdc34-1, temperature: 37 C
[4] = genetic background: cdc53-1, temperature: 37 C
[5] = genetic background: das1 deletion, temperature: 30 C
[6] = genetic background: das1 deletion, temperature: 37 C
[7] = genetic background: doa10 deletion, temperature: 30 C
[8] = genetic background: wild type, temperature: 30 C
[9] = genetic background: wild type, temperature: 37 C
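Also: PSI is a weighted mean of sequencing reads over stability bins, variants kept only with over 10 reads, mCherry proximal and sfGFP distal, peptide attached via GGGS linker.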

| Sequence | protein stability index [1, 3] | protein stability index [1, 4] | protein stability index [1, 5] | protein stability index [1, 6] | protein stability index [1, 7] | protein stability index [1, 8] | protein stability index [1, 9] | protein stability index [2] |
| --- | --- | --- | --- | --- | --- | --- | --- | --- |
| RQRQLAKKQKNA | 0.601 ± 0.043 | 0.7044 ± 0.0043 | 0.646 ± 0.0074 | 0.73 ± 0.0076 | 0.141 ± 0.032 | 0.181 ± 0.021 | 0.306 ± 0.038 | 0.322 ± 0.016 |
| RRFKINKKNKKF | 0.683 ± 0.028 | 0.749 ± 0.035 | 0.64 ± 0.048 | 0.761 ± 0.016 | 0.172 ± 0.026 | 0.189 ± 0.061 | 0.524 ± 0.12 | 0.339 ± 0.052 |
| RRWGFRSFLVGI | 0.728 ± 0.018 | 0.7869 ± 0.0035 | 0.712 ± 0.026 | 0.803 ± 0.026 | 0.645 ± 0.041 | 0.647 ± 0.022 | 0.7579 ± 0.0061 | 0.7307 ± 0.0056 |
| RSGGVPGFGRLC | 0.703 ± 0.033 | 0.7361 ± 0.0064 | 0.661 ± 0.02 | 0.7301 ± 0.003 | 0.658 ± 0.034 | 0.653 ± 0.022 | 0.723 ± 0.037 | 0.745 ± 0.014 |
| RSLRLFGCLGSL | 0.756 ± 0.029 | 0.762 ± 0.027 | 0.647 ± 0.019 | 0.751 ± 0.021 | 0.658 ± 0.039 | 0.647 ± 0.023 | 0.753 ± 0.016 | 0.7185 ± 0.0059 |
| RSWMRHVLRVAS | 0.543 ± 0.048 | 0.701 ± 0.0072 | 0.525 ± 0.026 | 0.719 ± 0.025 | 0.0958 ± 0.0031 | 0.104 ± 0.01 | 0.154 ± 0.013 | 0.194 ± 0.004 |
| RVDEVVKKLRTL | 0.62 ± 0.027 | 0.665 ± 0.047 | 0.667 ± 0.012 | 0.707 ± 0.0091 | 0.0971 ± 0.035 | 0.107 ± 0.028 | 0.17 ± 0.025 | 0.195 ± 0.043 |
| RVHYELEQIVIK | 0.632 ± 0.1 | 0.699 ± 0.019 | 0.581 ± 0.0072 | 0.664 ± 0.059 | 0.585 ± 0.053 | 0.574 ± 0.025 | 0.62 ± 0.064 | 0.518 ± 0.089 |
| RVSVNDGRRDSV | 0.712 ± 0.046 | 0.723 ± 0.016 | 0.652 ± 0.039 | 0.73 ± 0.013 | 0.681 ± 0.011 | 0.664 ± 0.015 | 0.707 ± 0.022 | 0.557 ± 0.18 |
| RWFPPPQYLRLV | 0.567 ± 0.021 | 0.648 ± 0.014 | 0.598 ± 0.02 | 0.68556 ± 0.00021 | 0.19 ± 0.032 | 0.163 ± 0.019 | 0.397 ± 0.024 | 0.288 ± 0.011 |
| RYEKIIKQINKQ | 0.609 ± 0.062 | 0.738 ± 0.015 | 0.655 ± 0.037 | 0.7664 ± 0.0071 | 0.13 ± 0.034 | 0.164 ± 0.06 | 0.429 ± 0.011 | 0.268 ± 0.044 |
| RYSVIRWMLIVC | 0.0413 ± 0.012 | 0.0475 ± 0.01 | 0.0885 ± 0.021 | 0.13 ± 0.0059 | 0.0358 ± 0.01 | 0.0321 ± 0.0053 | 0.0441 ± 0.0061 | 0.051 ± 0.013 |
| SALLLWAISIIC | 0.0476 ± 0.0084 | 0.117 ± 0.055 | 0.169 ± 0.031 | 0.221 ± 0.011 | 0.117 ± 0.019 | 0.15 ± 0.023 | 0.185 ± 0.011 | 0.22 ± 0.015 |
| SCDMIVTLIQIR | 0.5 ± 0.047 | 0.53 ± 0.022 | 0.375 ± 0.033 | 0.539 ± 0.0092 | 0.35 ± 0.016 | 0.383 ± 0.02 | 0.527 ± 0.0017 | 0.409 ± 0.027 |
| SCICTSCLVLVL | 0.5223 ± 0.0033 | 0.509 ± 0.024 | 0.327 ± 0.032 | 0.552 ± 0.002 | 0.298 ± 0.011 | 0.32 ± 0.029 | 0.5334 ± 0.0046 | 0.368 ± 0.049 |
| SCPEFNIRVRNG | 0.641 ± 0.033 | 0.669 ± 0.047 | 0.661 ± 0.023 | 0.731 ± 0.012 | 0.138 ± 0.022 | 0.168 ± 0.028 | 0.409 ± 0.045 | 0.297 ± 0.11 |
| SCSHYRLICSRL | 0.9109 ± 0.0012 | 0.92 ± 0.015 | 0.752 ± 0.022 | 0.87 ± 0.012 | 0.6118 ± 0.0026 | 0.579 ± 0.033 | 0.7975 ± 0.0065 | 0.598 ± 0.25 |
| SDVHLKSEALAA | 0.682 ± 0.024 | 0.69 ± 0.0095 | 0.569 ± 0.025 | 0.656 ± 0.013 | 0.5543 ± 0.0018 | 0.568 ± 0.02 | 0.663 ± 0.024 | 0.542 ± 0.11 |
| SFFLIISFFVRV | 0.2341 ± 0.0015 | 0.394 ± 0.051 | 0.23 ± 0.049 | 0.366 ± 0.031 | 0.239 ± 0.028 | 0.224 ± 0.054 | 0.336 ± 0.013 | 0.338 ± 0.066 |
| SFFSFLLLRVPC | 0.119 ± 0.022 | 0.144 ± 0.019 | 0.203 ± 0.026 | 0.303 ± 0.022 | 0.199 ± 0.0044 | 0.201 ± 0.026 | 0.288 ± 0.043 | 0.308 ± 0.03 |

| Sequence | protein stability index [1, 3] | protein stability index [1, 4] | protein stability index [1, 5] | protein stability index [1, 6] | protein stability index [1, 7] | protein stability index [1, 8] | protein stability index [1, 9] | protein stability index [2] |
| --- | --- | --- | --- | --- | --- | --- | --- | --- |
| SFGSMIITYAWG | 0.616 ± 0.011 | 0.623 ± 0.0089 | 0.467 ± 0.021 | 0.638 ± 0.021 | 0.491 ± 0.065 | 0.486 ± 0.034 | 0.637 ± 0.026 | 0.473 ± 0.034 |
| SFWLGVGIFFVG | 0.544 ± 0.038 | 0.597 ± 0.022 | 0.434 ± 0.028 | 0.618 ± 0.028 | 0.405 ± 0.013 | 0.419 ± 0.023 | 0.559 ± 0.015 | 0.481 ± 0.021 |
| SFYVWILLWSYY | 0.26 ± 0.0071 | 0.256 ± 0.012 | 0.252 ± 0.023 | 0.384 ± 0.032 | 0.223 ± 0.015 | 0.214 ± 0.024 | 0.323 ± 0.014 | 0.294 ± 0.021 |
| SGGRFVLFIIAV | 0.444 ± 0.012 | 0.538 ± 0.048 | 0.376 ± 0.031 | 0.582 ± 0.013 | 0.344 ± 0.022 | 0.37 ± 0.023 | 0.535 ± 0.0051 | 0.42491 ± 0.00036 |
| SGVHWFRGNSWG | 0.697 ± 0.00077 | 0.749 ± 0.012 | 0.653 ± 0.0093 | 0.74 ± 0.027 | 0.657 ± 0.0087 | 0.646 ± 0.013 | 0.716 ± 0.036 | 0.712 ± 0.0087 |
| SHGKDVLNKINS | 0.608 ± 0.019 | 0.763 ± 0.045 | 0.633 ± 0.025 | 0.72 ± 0.033 | 0.146 ± 0.0078 | 0.17 ± 0.013 | 0.23 ± 0.036 | 0.319 ± 0.077 |
| SHTRPPVTAPLH | 0.689 ± 0.026 | 0.7142 ± 0.0027 | 0.646 ± 0.0068 | 0.72895 ± 0.00039 | 0.668 ± 0.033 | 0.654 ± 0.014 | 0.695 ± 0.0075 | 0.7165 ± 0.0055 |
| SIFSIFFLVRNF | 0.4535 ± 0.0038 | 0.551 ± 0.029 | 0.436 ± 0.037 | 0.59 ± 0.023 | 0.117 ± 0.0077 | 0.12 ± 0.039 | 0.195 ± 0.028 | 0.217 ± 0.0043 |
| SIFSIRRQISFS | 0.662 ± 0.0077 | 0.743 ± 0.009 | 0.653 ± 0.017 | 0.724 ± 0.012 | 0.327 ± 0.0085 | 0.346 ± 0.014 | 0.5729 ± 0.0022 | 0.418 ± 0.015 |
| SILVLGRSVGVG | 0.436 ± 0.026 | 0.4817 ± 0.00055 | 0.44 ± 0.027 | 0.521 ± 0.023 | 0.451 ± 0.0099 | 0.442 ± 0.01 | 0.49 ± 0.018 | 0.519 ± 0.07 |
| SIQMNCILLLVI | 0.211 ± 0.041 | 0.224 ± 0.021 | 0.213 ± 0.026 | 0.339 ± 0.012 | 0.188 ± 0.032 | 0.186 ± 0.024 | 0.299 ± 0.028 | 0.298 ± 0.058 |
| SKPFPRHIFSLH | 0.674 ± 0.022 | 0.737 ± 0.027 | 0.663 ± 0.026 | 0.7348 ± 0.0039 | 0.481 ± 0.03 | 0.4981 ± 0.0046 | 0.644 ± 0.012 | 0.503 ± 0.046 |
| SLCWSYVWVSCP | 0.264 ± 0.035 | 0.302 ± 0.007 | 0.247 ± 0.024 | 0.375 ± 0.0093 | 0.21 ± 0.0079 | 0.241 ± 0.022 | 0.343 ± 0.0047 | 0.334 ± 0.018 |
| SLFERLSPVLCF | 0.249 ± 0.037 | 0.2784 ± 0.0027 | 0.23 ± 0.024 | 0.3548 ± 0.00059 | 0.214 ± 0.008 | 0.224 ± 0.017 | 0.30185 ± 0.00011 | 0.308 ± 0.011 |
| SLFVLLVSALLH | 0.173 ± 0.029 | 0.32 ± 0.025 | 0.212 ± 0.025 | 0.38251 ± 0.0002 | 0.18 ± 0.0094 | 0.194 ± 0.033 | 0.328 ± 0.011 | 0.345 ± 0.02 |
| SLGRYVSFLFVV | 0.433 ± 0.02 | 0.6623 ± 0.0014 | 0.565 ± 0.024 | 0.668 ± 0.024 | 0.106 ± 0.0061 | 0.0996 ± 0.016 | 0.153 ± 0.019 | 0.202 ± 0.004 |
| SLLSELILVGVS | 0.394 ± 0.0081 | 0.409 ± 0.0044 | 0.284 ± 0.035 | 0.465 ± 0.0089 | 0.229 ± 0.011 | 0.304 ± 0.018 | 0.4308 ± 0.0017 | 0.406 ± 0.021 |
| SLLWLYSAFVWY | 0.302 ± 0.012 | 0.409 ± 0.011 | 0.347 ± 0.032 | 0.503 ± 0.016 | 0.188 ± 0.027 | 0.186 ± 0.023 | 0.386 ± 0.069 | 0.324 ± 0.05 |
| SLRCILISTRVK | 0.541 ± 0.02 | 0.601 ± 0.054 | 0.331 ± 0.046 | 0.563 ± 0.0091 | 0.317 ± 0.043 | 0.348 ± 0.021 | 0.531 ± 0.018 | 0.437 ± 0.087 |

Reference: the supplement of paper PMC10724198
